The record followed here is PMC2965767, “Identification and Genome-Wide Prediction of DNA Binding Specificities for the ApiAP2 Family of Regulators from the Malaria Parasite”.

Changes are numbered by the printed parent chain.

Data set [1] addresses T1, PFD0985w D2ext (ApiAP2) (Plasmodium falciparum) (UniProt Q8I1N6).
T1 sequence: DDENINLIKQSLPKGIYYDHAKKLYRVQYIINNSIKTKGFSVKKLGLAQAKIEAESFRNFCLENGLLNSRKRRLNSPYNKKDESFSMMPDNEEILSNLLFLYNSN
To be noted: PBM; highest protein concentration obtained; buffer not given; scale: PBM E-score of the seed 8-mer.

Data set [2] has as its target T2, PFL1085w D1ext (PF3D7_1222600, AP2 domain transcription factor AP2-G) (Plasmodium falciparum) (UniProt Q8I5I9).
T2 sequence: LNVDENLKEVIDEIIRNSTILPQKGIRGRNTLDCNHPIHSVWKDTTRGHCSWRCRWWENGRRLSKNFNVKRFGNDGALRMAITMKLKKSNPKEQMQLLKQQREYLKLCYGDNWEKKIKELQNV
The following applies: PBM; highest protein concentration obtained; buffer not given; scale: PBM E-score of the seed 8-mer.

The target in data set [3] is T3, PFL1075w D1 (PF3D7_1222400, AP2 domain transcription factor) (Plasmodium falciparum) (UniProt Q8I5J1).
T3 sequence: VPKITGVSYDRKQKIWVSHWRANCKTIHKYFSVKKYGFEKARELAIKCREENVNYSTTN
The following applies: PBM; highest protein concentration obtained; buffer not given; scale: PBM E-score of the seed 8-mer.

In data set [4] the target is T4, PF10_0075 D1ext (PF3D7_1007700, AP2 domain transcription factor AP2-I) (Plasmodium falciparum) (UniProt Q8IJW6).
T4 sequence: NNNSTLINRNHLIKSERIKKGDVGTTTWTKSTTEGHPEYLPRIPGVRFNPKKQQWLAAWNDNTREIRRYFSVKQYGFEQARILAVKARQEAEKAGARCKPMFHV
To be noted: PBM; highest protein concentration obtained; buffer not given; scale: PBM E-score of the seed 8-mer.

Data set [5] has as its target T5, PF13_0097 D1 (PF3D7_1317200, AP2 domain transcription factor AP2-FG, putative) (Plasmodium falciparum) (UniProt Q8IEE4).
T5 sequence: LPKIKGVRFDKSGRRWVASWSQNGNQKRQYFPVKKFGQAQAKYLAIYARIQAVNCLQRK
The following applies: PBM; highest protein concentration obtained; buffer not given; scale: PBM E-score of the seed 8-mer.

The target of data set [6] is T6, PF14_0533 D1 (PF3D7_1456000, AP2 domain transcription factor, putative) (Plasmodium falciparum) (UniProt Q8IKR9).
T6 sequence: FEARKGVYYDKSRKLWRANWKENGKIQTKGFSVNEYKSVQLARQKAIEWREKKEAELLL
The following applies: PBM; highest protein concentration obtained; buffer not given; scale: PBM E-score of the seed 8-mer.

Data set [7] concerns the target T7, PF14_0633 D1 (PF3D7_1466400, AP2 domain transcription factor AP2-EXP) (Plasmodium falciparum) (UniProt Q8IKH2).
T7 sequence: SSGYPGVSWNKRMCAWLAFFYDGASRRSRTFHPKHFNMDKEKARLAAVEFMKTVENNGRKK
To be noted: PBM; highest protein concentration obtained; buffer not given; scale: PBM E-score of the seed 8-mer.

Data set [8] has as its target T8, PFF0670w D2ext (PF3D7_0613800, AP2 domain transcription factor, putative) (Plasmodium falciparum) (UniProt C6KSY0).
T8 sequence: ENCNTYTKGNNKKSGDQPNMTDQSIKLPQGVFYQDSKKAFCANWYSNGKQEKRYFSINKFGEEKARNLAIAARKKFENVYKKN
To be noted: PBM; highest protein concentration obtained; buffer not given; scale: PBM E-score of the seed 8-mer.

In data set [9] the target is T9, PFF0200c D1 (PF3D7_0604100, AP2 domain transcription factor) (Plasmodium falciparum) (UniProt C6KSN9).
T9 sequence: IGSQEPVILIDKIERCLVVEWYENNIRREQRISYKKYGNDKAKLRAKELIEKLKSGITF
The following applies: PBM; highest protein concentration obtained; buffer not given; scale: PBM E-score of the seed 8-mer.

Data set [10] has as its target T10, PF13_0267 D1 (PF3D7_1350900, AP2 domain transcription factor AP2-O4, putative) (Plasmodium falciparum) (UniProt A0A5K1K8Z4).
T10 sequence: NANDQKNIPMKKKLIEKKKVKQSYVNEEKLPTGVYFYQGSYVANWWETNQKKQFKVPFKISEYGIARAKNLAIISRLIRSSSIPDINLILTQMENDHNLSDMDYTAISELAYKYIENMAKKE
To be noted: PBM; highest protein concentration obtained; buffer not given; scale: PBM E-score of the seed 8-mer.

The target in data set [11] is T11, PFL1900w DLD (PF3D7_1239200, AP2 domain transcription factor, putative) (Plasmodium falciparum) (UniProt Q8I531).
T11 sequence: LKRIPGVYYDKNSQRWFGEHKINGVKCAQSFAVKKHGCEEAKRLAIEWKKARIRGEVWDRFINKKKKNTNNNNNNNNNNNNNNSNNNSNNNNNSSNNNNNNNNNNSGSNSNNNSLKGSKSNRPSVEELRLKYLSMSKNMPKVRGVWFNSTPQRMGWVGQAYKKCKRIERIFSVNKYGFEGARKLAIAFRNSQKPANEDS
The following applies: PBM; highest protein concentration obtained; buffer not given; scale: PBM E-score of the seed 8-mer.

The target of data set [12] is T12, PF10_0075 D3ext (PF3D7_1007700, AP2 domain transcription factor AP2-I) (Plasmodium falciparum) (UniProt Q8IJW6).
T12 sequence: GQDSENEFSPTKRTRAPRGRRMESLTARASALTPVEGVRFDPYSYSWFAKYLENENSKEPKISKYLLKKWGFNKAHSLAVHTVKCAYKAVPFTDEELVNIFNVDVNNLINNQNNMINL
To be noted: PBM; highest protein concentration obtained; buffer not given; scale: PBM E-score of the seed 8-mer.

The next data set has as its target T13, PFD0985w D2ext (ApiAP2) (Plasmodium falciparum, UniProt Q8I1N6 3258-3362).
T13 sequence: T1 sequence
Nature of the data set: EMSA; 5 mM MgCl2 with 10 mM EDTA; LightShift buffer, 2.5% glycerol, 50 mM KCl, 0.05% NP-40, 50 ng/uL poly(dI-dC); room temperature, 20 min. To be noted: tags: N-terminal GST (pGEX-4T1), kept; label: 5' biotin. (Mobility shift assays separate free from complexed probe on a gel.)

Data set [13] has as its target PF10_0075 D3ext (PF3D7_1007700, AP2 domain transcription factor AP2-I) (Plasmodium falciparum, UniProt Q8IJW6 910-1027). The data set is described as above. To be noted: tags: N-terminal GST (pGEX-4T1), kept; label: 5' biotin.

Consider “GTGYNYACAC / GTGTRNRCAC [PFD0985w_D2 Secondary motif 2]”, for which the binding signal in [1] was above 0.45.
In [2], “GTGGTC (double strand) [PFL1085w Secondary motif 2]” registered a binding signal above 0.45.
On to “CTGTATAA (double strand) [PFL1075w Secondary motif 2]”, for which the binding signal in data set [3] is above 0.45.
For the molecule “RGGTCGTTA / TAACGACCY [PF10_0075_D1 Secondary motif 2]”, in data set [4], the binding signal is above 0.45.
For the molecule “AGCTCAGA (double strand) [PF13_0097 primary motif]”, the binding signal in [5] is 0.489.
As for “CACACACAC (double strand) [PF14_0533 primary motif]”, the binding signal in data set [6] is 0.5.
Molecule “TATATAGC (double strand) [PFL1075w Secondary motif 1]” had a binding signal in data set [3] above 0.45.
The molecule “TCACYCAR / YTGRGTGA [PF13_0097 Secondary motif 3]” displayed a binding signal in data set [5] above 0.45.
In [7], “GCATGC (double strand) [PF14_0633 primary motif]” registered a binding signal of 0.5.
Regarding “GGTTCCGA (double strand) [PF10_0075_D1 Secondary motif 5]”, the binding signal in [4] is above 0.45.
Take “GTGTGCA (double strand) [PF14_0533 Secondary motif 1]”: in data set [6], the binding signal was above 0.45.
With “ARCATGCA / TGCATGYT [PF14_0633 Secondary motif 1]”, in data set [7], the binding signal was above 0.45.
For the molecule “ACCTAGGT (double strand) [PFF0670w_D2 Secondary motif 1]”, the binding signal in [8] was above 0.45.
“CTCTAGAG (double strand) [PFF0670w_D2 primary motif]” showed a binding signal in data set [8] of 0.495.
“GTGTTACAC (double strand) [PFD0985w_D2 primary motif]” displayed a binding signal in data set [1] of 0.496.
As to “CMTGCACCMC / GKGGTGCAKG [PFF0200c_D1 Secondary motif 1]”, the binding signal in data set [9] is above 0.45.
“TGATCM / KGATCA [PF13_0097 Secondary motif 2]” showed a binding signal in data set [5] above 0.45.
In [10], “ACCTAA (double strand) [PF13_0267 Secondary motif 2]” showed a binding signal above 0.45.
Consider “ACRACATC / GATGTYGT [PFL1900w_DLD Secondary motif 1]”, for which the binding signal in [11] was above 0.45.
For the molecule “GTGCGKTA / TAMCGCAC [PF10_0075_D3 Secondary motif 2]”, the binding signal in data set [12] was above 0.45.
As to “TGCTCAA (double strand) [PF13_0097 Secondary motif 1]”, the binding signal in data set [5] was above 0.45.
“AAGATCTT (double strand) [PFF0670w_D2 Secondary motif 2]” displayed a binding signal in data set [8] above 0.45.
In the case of “GTGTAC (double strand) [PFL1085w primary motif]”, the binding signal in data set [2] came to 0.49.
For the molecule “GTCGCGAC (double strand) [PF10_0075_D1 Secondary motif 3]”, the binding signal in data set [4] was above 0.45.
Regarding “CTANTAG (double strand) [PF13_0267 Secondary motif 1]”, in [10], the binding signal was above 0.45.
In [9], “MCGCACCC / GGGTGCGK [PFF0200c_D1 Secondary motif 2]” showed a binding signal above 0.45.
In [12], “GTGCACTA (double strand) [PF10_0075_D3 primary motif]” displayed a binding signal of 0.496.
As for “GTGCAA (double strand) [PF10_0075_D3 Secondary motif 4]”, the binding signal in data set [12] was above 0.45.
For “TATATATA (double strand) [PFL1075w primary motif]”, in data set [3], the binding signal was 0.499.
Take “CCACACAC (double strand) [PFD0985w_D2 Secondary motif 3]”: the binding signal in data set [1] is above 0.45.
Consider “GTACTACT (double strand) [PFL1085w Secondary motif 1]”, for which, in data set [2], the binding signal is above 0.45.
In [4], “TCGGKGCA / TGCMCCGA [PF10_0075_D1 Secondary motif 1]” yielded a binding signal above 0.45.
With “TCTACAA (double strand) [PFL1900w_DLD primary motif]”, the binding signal in [11] was determined as 0.468.
On the same count and under the same terms, the same measure for “ACCGCGGT (double strand) [PFL1900w_DLD Secondary motif 2]”: above 0.45.
As to “WGTGCACTRNA / TNYAGTGCACW [PFF0200c_D1 Secondary motif 3]”, the binding signal in data set [9] was above 0.45.
As for “ATATGCAC (double strand) [PF10_0075_D3 Secondary motif 3]”, the binding signal in data set [12] is above 0.45.
In data set [4], “GGGTCGACCC (double strand) [PF10_0075_D1 primary motif]” gave a binding signal of 0.495.
Take “GTGCGCAC (double strand) [PF10_0075_D3 Secondary motif 1]”: the binding signal in data set [12] is above 0.45.
In the case of “WATTWCAC (double strand) [PFD0985w_D2 Secondary motif 1]”, the binding signal in data set [1] was above 0.45.
“ATTCTAGAA (double strand) [PF13_0267 primary motif]” registered a binding signal in [10] of 0.479.

B1: PFD0985w_D2-1 (motif rank) (dsDNA)
DNA 1: AATATTATAATAGTCGTAGCCATCAATGTGTAACACATGGTAATATAGATTTTCGTTTATATT
DNA 2: AATATAAACGAAAATCTATATTACCATGTGTTACACATTGATGGCTACGACTATTATAATATT
As for B1, the binding result in the data set with PFD0985w D2ext (ApiAP2) was “binds”.

B2: PFD0985w_D2-2 (motif rank) (dsDNA)
DNA 1: B1 DNA 1 with G28C, T29C, G30A, T31C, A33C, C34A, A35C
DNA 2: B1 DNA 2 with T29G, G30T, T31G, A33G, C34T, A35G, C36G
Consider B2, for which, in the data set with PFD0985w D2ext (ApiAP2), the binding result was “binds”.

B3: rhopH3 (dsDNA)
DNA 1: ATTAATTTAATATGTACGCAAGGTGCACACTGGTGCATTAAAAAAAAAATATATATTAAT
DNA 2: ATTAATATATATTTTTTTTTTAATGCACCAGTGTGCACCTTGCGTACATATTAAATTAAT
Consider B3, for which, in data set [13], the binding result was “binds”.

B4: No motif (dsDNA)
DNA 1: AATATTATAATAGTCGTAGCCATCAATAAAAAAAAATGGTAATATAGATTTTCGTTTATATT
DNA 2: AATATAAACGAAAATCTATATTACCATTTTTTTTTATTGATGGCTACGACTATTATAATATT
Take B4: the binding result with PFD0985w D2ext (ApiAP2) is reported as “no binding”.

B5: msp10 (dsDNA)
DNA 1: TCAACAATTATTATATAATTAATTAGAAGTGCATTAGGTAACAACTGTCGAATAAATATAT
DNA 2: ATATATTTATTCGACAGTTGTTACCTAATGCACTTCTAATTAATTATATAATAATTGTTGA
Consider B5, for which the binding result in data set [13] is “binds”.

B6: msp1 (dsDNA)
DNA 1: AAATTGTGTAAATTCATATTCGATAAAGTGCATTAATTTTATTTATCAATTGTAAACATA
DNA 2: TATGTTTACAATTGATAAATAAAATTAATGCACTTTATCGAATATGAATTTACACAATTT
Consider B6, for which the binding result in [13] is listed as “binds”.
